This note sets out measurements from patent publication US20230135471A1, “UBIQUITIN VARIANTS WITH IMPROVED AFFINITY FOR 53BP1” (Integrated DNA Technologies, Inc., priority 2021, published 2023).

The target of test [1] is T1, fragment of 53BP1 (a.a. 1221-1718) (Homo sapiens, UniProt Q12888).
T1 construct: a fragment of 53BP1 (a.a. 1221-1718); expressed in transfected cells; host or cells: E. coli DHM1
Nature of the test: BACTH two-hybrid pooled screen in E. coli, FACS sorting of GFP positive cells and NGS enrichment of i53 amino acid changes. In kind it is cell-based. The note with it: i53 (SEQ ID NO: 2) background; for Rep 1 Enrichment / Rep 2 Enrichment: log2 enrichment of amino acid change in GFP positive vs input, normalised to synonymous changes; for Average Enrichment / Experiment 1 - high selection pressure Average Enrichment / Experiment 2-low selection pressure Average Enrichment: average of Rep 1 and Rep 2; for Average Enrichment: log2 enrichment; for Experiment 1 - high selection pressure Average Enrichment / Experiment 2-low selection pressure Average Enrichment: log 2 enrichment; for Experiment 1 - high selection pressure Rep 1 Enrichment / Experiment 2-low selection pressure Rep 1 Enrichment: replicate 1; for Experiment 1 - high selection pressure Rep 1 Enrichment / Experiment 1 - high selection pressure Rep 2 Enrichment / Experiment 2-low selection pressure Rep 1 Enrichment / Experiment 2-low selection pressure Rep 2 Enrichment: enrichment = log 2 of positive/input read count ratio normalised to synonymous changes; for Experiment 1 - high selection pressure Rep 2 Enrichment / Experiment 2-low selection pressure Rep 2 Enrichment: replicate 2. The source says: (§1) In order to identify mutations that improve the affinity of i53 for 53BP1, the bacterial adenylate cyclase two-hybrid system (BACTH system) was used to screen for interaction between the two proteins. This method makes use of a B. pertussis calmodulin-dependent adenylate cyclase toxin. The catalytic domain of the toxin can be separated into two fragments (T18 and T25) that are able to associate in the presence of calmodulin but have minimal activity in its absence. If bait and prey proteins fused to T18 and T25 interact, then the catalytic activity is restored and cAMP is produced. In E. coli, cAMP binds to catabolite activator protein (CAP) that acts as a transcriptional activator for several genes. By expressing these fusion proteins in an E. coli strain that lacks endogenous adenylate cyclase and naturally lacks calmodulin, cAMP regulated protein expression can be used as a readout of bait-prey interaction. We engineered the screen so that eGFP will be expressed under the control of a cAMP-regulated promoter. The coding sequence for a fragment of 53BP1 (a.a. 1221-1718) containing the i53 interacting regions and i53 were cloned into T18 and T25 adenylate cyclase expression plasmids such that fusion proteins of each would be expressed. If a Ubv interacts with 53BP1, the T18 and T25 fragments will be brought together, adenylate cyclase activity will be restored, cAMP will be produced, and some portion of the bacterial population will be GFP positive.
A plasmid library was made consisting of Ubv-adenylate cyclase fragment fusion protein plasmids that had on average a single codon within the i53 coding region exchanged for a random NNK codon. Plasmids were transformed into DHM1 cells that lack endogenous adenylate cyclase and contain the plasmid for expression of the 53BP1 fragment fused to one of the adenylate cyclase fragments. Expression of eGFP was used as a readout of bait-prey interaction using fluorescence activated cell sorting (FACS) to sort for GFP positive bacteria. Plasmid DNA was isolated from both the sorted GFP positive bacteria (Positive) and from the original pre-sort population (Input) and was sequenced using NGS. Counts were merged for mutations that result in the same amino acid change using Enrich2 [25]. Enrichment was calculated as enrichment=log 2((read count for an amino acid change in the positive population/read count for an amino acid change in the input)/(synonymous change read count in the positive population/synonymous change read count in the input)). […] For each experiment, DHM1 cells were transformed with the Ubv fusion protein plasmid library in two separate replicates using a gene pulser (Bio-Rad). The i53-adenylate cyclase fragment fusion protein (published i53 peptide, SEQ ID NO:2) plasmid was also introduced separately as a control to estimate selection pressure. Cells were then grown and sorted using FACS and GFP positive cells were collected. Two separate experiments were conducted on separate days using different levels of selection pressure resulting in a different percent GFP positive for the i53 population (i.e. for cells that express published i53 peptide (SEQ ID NO:2) fused to one of the adenylate cyclase fragments).
(§2) There was a high degree of correlation between the two experiments and between replicates (FIG. 2). From these screens, about 230 amino acid changes were identified for which the average enrichment was positive for at least one of the experiments (Table 1). […] To validate that the amino acid changes identified from the pooled screen are reproducible on an individual basis, 24 amino acid changes identified from this screen were introduced individually into the i53 fusion protein plasmid and tested by flow cytometry for their effect on the percent positive population relative to i53 (FIG. 3). There was a strong correlation between the enrichment measured from the pooled screen and the percent reporter positive cells when mutations were screened individually.

The target in test [2] is T1, fragment of 53BP1 (a.a. 1221-1718). Nature of the test: Individual two-hybrid screen of amino acid changes, percent GFP (reporter) positive cells by flow cytometry. Format: cell-based. Also noted: key to Dunnett's Multiple Comparison Summary: NS means not significant; *, **, ***, **** reflects qualitative measure of the strength of association the Ubv has with 53BP1 compared to the similar association of i53 with 53BP1.; *, **, ***, **** reflects qualitative measure of the strength of association the Ubv has with 53BP1 compared to the similar association of i53 with 53BP1.; *, **, ***, **** reflects qualitative measure of the strength of association the Ubv has with 53BP1 compared to the similar association of i53 with 53BP1.; *, **, ***, **** reflects qualitative measure of the strength of association the Ubv has with 53BP1 compared to the similar association of i53 with 53BP1. The following applies: for Dunnett's Multiple Comparison Summary: comparison i53 vs. i53 + amino acid change; for Percent GFP Positive Rep 1: replicate 1, amino acid change in i53 fusion protein plasmid; for Percent GFP Positive Rep 2: replicate 2; for Percent GFP Positive Rep 3: replicate 3.
Excerpt: as §1, §2
(In general: Flow cytometry measures light scatter and fluorescence of single cells or particles in a stream.)

[3] abbreviates: Experiment 1 - high selection pressure.
Where [4] appears, read: Experiment 2 - low selection pressure.

T1 sequence (Q12888 1221-1718): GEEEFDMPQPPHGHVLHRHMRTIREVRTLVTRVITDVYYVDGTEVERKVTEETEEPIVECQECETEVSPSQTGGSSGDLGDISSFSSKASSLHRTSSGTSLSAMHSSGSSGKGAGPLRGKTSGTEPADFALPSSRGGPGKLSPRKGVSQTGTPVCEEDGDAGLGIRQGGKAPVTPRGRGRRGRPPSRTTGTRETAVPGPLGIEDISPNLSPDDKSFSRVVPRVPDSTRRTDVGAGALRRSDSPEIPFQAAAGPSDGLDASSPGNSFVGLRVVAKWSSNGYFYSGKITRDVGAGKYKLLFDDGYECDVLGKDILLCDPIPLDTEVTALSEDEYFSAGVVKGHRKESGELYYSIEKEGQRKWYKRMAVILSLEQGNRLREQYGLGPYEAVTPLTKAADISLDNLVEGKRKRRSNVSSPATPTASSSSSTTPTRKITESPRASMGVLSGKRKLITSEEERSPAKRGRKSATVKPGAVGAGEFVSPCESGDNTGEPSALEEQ

In the case of A44T: i53 with amino acid change A44T, in test [1] (setting [3]), the “Rep 1 Enrichment” value is given as 1.70, the “Rep 2 Enrichment” value is given as 0.87 and the “Average Enrichment” value was 1.28. In test [1] (setting [4]), the “Rep 1 Enrichment” value was determined as 0.75, the “Rep 2 Enrichment” value was determined as 0.59 and the “Average Enrichment” value is listed as 0.67. Moreover, in test [2], the “Dunnett's Multiple Comparison Summary” value was “ns”, the “Percent GFP Positive Rep 1” value turned out to be 17.5%, the “Percent GFP Positive Rep 2” value came to 7.7% and the “Percent GFP Positive Rep 3” value worked out at 12.8%.
H68M: i53 with amino acid change H68M: in test [1], the “Experiment 1 - high selection pressure Average Enrichment” value came to 2.28, the “Experiment 1 - high selection pressure Rep 1 Enrichment” value worked out at 2.53, the “Experiment 1 - high selection pressure Rep 2 Enrichment” value is 2.04 and the “Experiment 2-low selection pressure Average Enrichment” value came out at 1.28. In test [1], the “Experiment 2-low selection pressure Rep 1 Enrichment” value was found to be 0.99 and the “Experiment 2-low selection pressure Rep 2 Enrichment” value worked out at 1.58. Also, in test [2], the “Dunnett's Multiple Comparison Summary” value was “***”, the “Percent GFP Positive Rep 1” value came out at 28.6%, the “Percent GFP Positive Rep 2” value is reported as 23.5% and the “Percent GFP Positive Rep 3” value is listed as 28.3%.
As to I61L: i53 with amino acid change I61L, in test [1] (setting [3]), the “Rep 1 Enrichment” value is 1.10, the “Rep 2 Enrichment” value turned out to be 1.02 and the “Average Enrichment” value was determined as 1.06. For the same substance, in test [1] (setting [4]), the “Rep 1 Enrichment” value came to 0.75, the “Rep 2 Enrichment” value was found to be 0.59 and the “Average Enrichment” value came to 0.67. Moreover, in test [2], the “Dunnett's Multiple Comparison Summary” value is reported as “ns”, the “Percent GFP Positive Rep 1” value is 15.9%, the “Percent GFP Positive Rep 2” value is reported as 17.6% and the “Percent GFP Positive Rep 3” value worked out at 17.2%.
Turning to K29M: i53 with amino acid change K29M, in test [1] (setting [3]), the “Rep 1 Enrichment” value came to 1.72, the “Rep 2 Enrichment” value is on record as 1.48 and the “Average Enrichment” value is listed as 1.60. Also, in test [1] (setting [4]), the “Rep 1 Enrichment” value was 1.23, the “Rep 2 Enrichment” value is given as 0.57 and the “Average Enrichment” value stood at 0.90. Further, in test [2], the “Dunnett's Multiple Comparison Summary” value is on record as “ns”, the “Percent GFP Positive Rep 1” value worked out at 23.9%, the “Percent GFP Positive Rep 2” value is 16.5% and the “Percent GFP Positive Rep 3” value worked out at 17.8%.
For the substance K48T: i53 with amino acid change K48T, in test [1] (setting [3]), the “Rep 1 Enrichment” value worked out at 1.20, the “Rep 2 Enrichment” value amounted to 1.08 and the “Average Enrichment” value turned out to be 1.14. Besides, in test [1] (setting [4]), the “Rep 1 Enrichment” value turned out to be 0.84, the “Rep 2 Enrichment” value amounted to 0.66 and the “Average Enrichment” value is 0.75. In test [2], the “Dunnett's Multiple Comparison Summary” value was “ns”, the “Percent GFP Positive Rep 1” value turned out to be 16.9%, the “Percent GFP Positive Rep 2” value is given as 14% and the “Percent GFP Positive Rep 3” value turned out to be 14.5%.
As for L67K: i53 with amino acid change L67K, in test [1] (setting [3]), the “Rep 1 Enrichment” value is reported as 2.08, the “Rep 2 Enrichment” value is on record as 1.93 and the “Average Enrichment” value is 2.01. Also, in test [1] (setting [4]), the “Rep 1 Enrichment” value was found to be 1.40, the “Rep 2 Enrichment” value worked out at 0.39 and the “Average Enrichment” value stood at 0.89. Moreover, in test [2], the “Dunnett's Multiple Comparison Summary” value was “ns”, the “Percent GFP Positive Rep 1” value came out at 24.2%, the “Percent GFP Positive Rep 2” value is recorded as 11.2% and the “Percent GFP Positive Rep 3” value is reported as 21.5%.
For the substance L73M: i53 with amino acid change L73M, in test [1], the “Experiment 1 - high selection pressure Average Enrichment” value is listed as 2.61, the “Experiment 1 - high selection pressure Rep 1 Enrichment” value amounted to 2.69, the “Experiment 1 - high selection pressure Rep 2 Enrichment” value came to 2.52 and the “Experiment 2-low selection pressure Average Enrichment” value stood at 1.43. Besides, in test [1], the “Experiment 2-low selection pressure Rep 1 Enrichment” value is on record as 1.58 and the “Experiment 2-low selection pressure Rep 2 Enrichment” value worked out at 1.28. In test [2], the “Dunnett's Multiple Comparison Summary” value is reported as “****”, the “Percent GFP Positive Rep 1” value stood at 36.2%, the “Percent GFP Positive Rep 2” value is reported as 29.2% and the “Percent GFP Positive Rep 3” value is 39.5%.
As to S49L: i53 with amino acid change S49L, in test [1] (setting [3]), the “Rep 1 Enrichment” value came to 0.85, the “Rep 2 Enrichment” value amounted to 1.15 and the “Average Enrichment” value is 1.00. Also, in test [1] (setting [4]), the “Rep 1 Enrichment” value is on record as 0.97, the “Rep 2 Enrichment” value is given as 0.80 and the “Average Enrichment” value is on record as 0.88. For the same substance, in test [2], the “Dunnett's Multiple Comparison Summary” value is “ns”, the “Percent GFP Positive Rep 1” value worked out at 18.8%, the “Percent GFP Positive Rep 2” value turned out to be 13.6% and the “Percent GFP Positive Rep 3” value turned out to be 17.7%.
With V26I: i53 with amino acid change V26I, in test [1] (setting [3]), the “Rep 1 Enrichment” value stood at 0.99, the “Rep 2 Enrichment” value is on record as 1.25 and the “Average Enrichment” value is 1.12. Moreover, in test [1] (setting [4]), the “Rep 1 Enrichment” value was found to be 0.96, the “Rep 2 Enrichment” value is on record as 0.70 and the “Average Enrichment” value is given as 0.83. In test [2], the “Dunnett's Multiple Comparison Summary” value is reported as “ns”, the “Percent GFP Positive Rep 1” value is 20.9%, the “Percent GFP Positive Rep 2” value is 14.2% and the “Percent GFP Positive Rep 3” value was determined as 12.3%.
Turning to i53 K6R: i53 with K6R, in test [1] (setting [3]), the “Rep 1 Enrichment” value turned out to be 1.84, the “Rep 2 Enrichment” value was found to be 1.91 and the “Average Enrichment” value amounted to 1.87. In addition, in test [1] (setting [4]), the “Rep 1 Enrichment” value was determined as 1.22, the “Rep 2 Enrichment” value turned out to be 0.80 and the “Average Enrichment” value is recorded as 1.01. Further, in test [2], the “Dunnett's Multiple Comparison Summary” value is “**”, the “Percent GFP Positive Rep 1” value is on record as 19.8%, the “Percent GFP Positive Rep 2” value was 27% and the “Percent GFP Positive Rep 3” value is 24%.
